Data as given in article PMC9482650, “Quantitative fragmentomics allow affinity mapping of interactomes” (Nature Communications, 2022).
Residue numbers refer to the chain shown, from its start. One block for each binder: values may come before it.

Key:
Assay in all cases: holdup assay
Set-up in all cases: key: below the threshold = too weak to quantify, mostly under pKd 3.1 to 4
IL16_1, Q14005 = molecular target: IL16_1, Q14005
GRID2IP_2, A4D2P6 = molecular target: GRID2IP_2, A4D2P6
SCRIB_1, Q14160 = molecular target: SCRIB_1, Q14160
SCRIB_1, Q14160, sequence (Q14160 718-814): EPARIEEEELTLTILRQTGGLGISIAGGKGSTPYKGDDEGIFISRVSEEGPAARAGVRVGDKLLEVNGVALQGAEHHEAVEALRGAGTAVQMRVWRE

Inadl_5, Q8NI35 = molecular target: Inadl_5, Q8NI35
Inadl_5, Q8NI35, sequence (Q8NI35 673-780): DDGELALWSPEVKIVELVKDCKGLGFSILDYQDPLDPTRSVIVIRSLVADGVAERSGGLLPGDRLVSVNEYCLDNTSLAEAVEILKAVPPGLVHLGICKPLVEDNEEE

FRMPD4, Q14CM0 = molecular target: FRMPD4, Q14CM0
FRMPD4, Q14CM0, sequence (Q14CM0 67-160): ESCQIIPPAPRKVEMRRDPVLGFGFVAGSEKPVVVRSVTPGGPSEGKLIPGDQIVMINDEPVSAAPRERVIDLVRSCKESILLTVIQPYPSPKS

MAGI2_3, Q86UL8 = molecular target: MAGI2_3, Q86UL8
MAGI2_3, Q86UL8, sequence (Q86UL8 600-682): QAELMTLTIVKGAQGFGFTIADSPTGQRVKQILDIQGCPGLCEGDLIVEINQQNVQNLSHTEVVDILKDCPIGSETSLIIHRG

FRMPD3, Q5JV73 = molecular target: FRMPD3, Q5JV73
FRMPD3, Q5JV73, sequence (Q5JV73 12-100): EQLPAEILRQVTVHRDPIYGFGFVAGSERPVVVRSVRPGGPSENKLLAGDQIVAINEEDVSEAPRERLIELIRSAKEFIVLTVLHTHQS

DLG2_3, Q15700 = molecular target: DLG2_3, Q15700
MAGI2_4, Q86UL8 = molecular target: MAGI2_4, Q86UL8
MAGI2_4, Q86UL8, sequence (Q86UL8 772-865): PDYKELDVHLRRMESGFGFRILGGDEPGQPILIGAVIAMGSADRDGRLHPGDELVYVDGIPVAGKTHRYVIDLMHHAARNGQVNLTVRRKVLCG

LIN7A, O14910 = molecular target: T1, LIN7A, O14910
T1 sequence (O14910 103-200, limits assumed, looked up): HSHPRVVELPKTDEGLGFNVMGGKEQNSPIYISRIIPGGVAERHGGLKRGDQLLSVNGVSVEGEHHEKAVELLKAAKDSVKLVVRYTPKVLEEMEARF

DLG4_2, P78352 = molecular target: DLG4_2, P78352
DLG4_2, P78352, sequence (P78352 155-259): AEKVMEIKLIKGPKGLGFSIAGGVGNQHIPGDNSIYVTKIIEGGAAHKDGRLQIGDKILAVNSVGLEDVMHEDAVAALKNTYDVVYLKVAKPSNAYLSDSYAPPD

LNX1_3, Q8TBB1 = molecular target: LNX1_3, Q8TBB1
LNX1_3, Q8TBB1, sequence (Q8TBB1 500-596): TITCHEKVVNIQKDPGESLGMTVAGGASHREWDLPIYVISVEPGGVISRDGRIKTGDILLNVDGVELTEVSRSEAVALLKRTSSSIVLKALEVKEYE

LNX1_1, Q8TBB1 = molecular target: LNX1_1, Q8TBB1
LNX1_1, Q8TBB1, sequence (Q8TBB1 261-371): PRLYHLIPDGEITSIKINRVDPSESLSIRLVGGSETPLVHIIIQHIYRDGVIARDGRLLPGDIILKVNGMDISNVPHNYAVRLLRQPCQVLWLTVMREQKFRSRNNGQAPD

PTPN13_1, Q12923 = molecular target: T2, PTPN13_1, Q12923
T2 sequence (Q12923 1088-1188, limits assumed, looked up): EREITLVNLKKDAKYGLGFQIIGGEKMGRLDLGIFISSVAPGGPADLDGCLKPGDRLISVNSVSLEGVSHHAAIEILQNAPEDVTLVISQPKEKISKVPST

GRID2IP_1, A4D2P6 = molecular target: GRID2IP_1, A4D2P6
GRID2IP_1, A4D2P6, sequence (A4D2P6 1-87): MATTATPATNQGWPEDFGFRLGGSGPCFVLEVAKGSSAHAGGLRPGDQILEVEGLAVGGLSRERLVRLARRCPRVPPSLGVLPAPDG

PCLO, Q9Y6V0 = molecular target: T3, PCLO, Q9Y6V0
T3 sequence (Q9Y6V0 4491-4600, limits assumed, looked up): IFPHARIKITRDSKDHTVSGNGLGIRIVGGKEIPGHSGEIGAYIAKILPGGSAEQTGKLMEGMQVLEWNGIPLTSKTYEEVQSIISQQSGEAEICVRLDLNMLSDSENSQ

PDZRN4_1, Q6ZMN7 = molecular target: PDZRN4_1, Q6ZMN7
PDZRN4_1, Q6ZMN7, sequence (Q6ZMN7 213-318): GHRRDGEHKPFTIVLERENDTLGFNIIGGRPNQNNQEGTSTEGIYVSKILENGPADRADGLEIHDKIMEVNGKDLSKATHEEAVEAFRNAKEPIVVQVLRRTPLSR

APBA2_2, Q99767 = molecular target: T4, APBA2_2, Q99767
T4 sequence (Q99767 654-744, limits assumed, looked up): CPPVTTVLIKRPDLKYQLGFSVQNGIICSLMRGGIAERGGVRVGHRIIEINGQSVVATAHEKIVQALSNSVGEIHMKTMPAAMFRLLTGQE

TJP1_2, Q07157 = molecular target: TJP1_2, Q07157
TJP1_2, Q07157, sequence (Q07157 181-274): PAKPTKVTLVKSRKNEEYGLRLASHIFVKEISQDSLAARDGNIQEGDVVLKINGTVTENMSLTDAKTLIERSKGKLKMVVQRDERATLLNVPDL

FRMPD1, Q5SYB0 = molecular target: T5, FRMPD1, Q5SYB0
T5 sequence (Q5SYB0 52-145, limits assumed, looked up): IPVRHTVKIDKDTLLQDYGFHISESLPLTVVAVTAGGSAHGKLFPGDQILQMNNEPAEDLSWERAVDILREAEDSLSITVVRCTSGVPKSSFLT

PDZD7_3, Q9H5P4 = molecular target: T6, PDZD7_3, Q9H5P4
T6 sequence (Q9H5P4 857-944, limits assumed, looked up): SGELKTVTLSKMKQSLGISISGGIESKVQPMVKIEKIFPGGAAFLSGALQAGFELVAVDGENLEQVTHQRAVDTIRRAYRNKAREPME

GRIP1_7, Q9Y3R0 = molecular target: T7, GRIP1_7, Q9Y3R0
T7 sequence (Q9Y3R0 999-1096, limits assumed, looked up): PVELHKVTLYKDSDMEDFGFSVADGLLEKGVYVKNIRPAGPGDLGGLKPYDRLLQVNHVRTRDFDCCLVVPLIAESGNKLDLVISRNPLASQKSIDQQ

TIAM2, Q8IVF5 = molecular target: T8, TIAM2, Q8IVF5
T8 sequence (Q8IVF5 885-986, limits assumed, looked up): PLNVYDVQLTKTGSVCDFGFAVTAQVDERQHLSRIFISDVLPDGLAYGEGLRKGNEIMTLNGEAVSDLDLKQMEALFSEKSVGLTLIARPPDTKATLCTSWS

MAGI2_6, Q86UL8 = molecular target: MAGI2_6, Q86UL8
MAGI2_6, Q86UL8, sequence (Q86UL8 1141-1229): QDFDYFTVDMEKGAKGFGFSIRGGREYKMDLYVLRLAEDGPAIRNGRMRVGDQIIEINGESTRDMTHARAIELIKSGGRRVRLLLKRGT

MAST1, Q9Y2H9 = molecular target: MAST1, Q9Y2H9
MAST1, Q9Y2H9, sequence (Q9Y2H9 962-1065): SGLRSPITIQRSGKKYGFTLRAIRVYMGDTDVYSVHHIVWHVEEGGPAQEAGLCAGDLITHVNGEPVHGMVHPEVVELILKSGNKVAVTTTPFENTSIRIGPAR

GRIP1_4, Q9Y3R0 = molecular target: T9, GRIP1_4, Q9Y3R0
T9 sequence (Q9Y3R0 467-571, limits assumed, looked up): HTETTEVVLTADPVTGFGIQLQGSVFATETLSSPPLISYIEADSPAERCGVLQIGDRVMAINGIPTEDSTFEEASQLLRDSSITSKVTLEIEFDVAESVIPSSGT

LIN7B, Q9HAP6 = molecular target: T10, LIN7B, Q9HAP6
T10 sequence (Q9HAP6 88-185, limits assumed, looked up): T1 sequence (O14910 103-200, limits assumed, looked up) with S2A, V20I, I35V, E42D, H65Q, K77Q, D78G, K89R

[1] = plain residues with an end cap or a label only (N-terminal biotin on a linker: ado-ado)
[2] = plain residues with an end cap or a label only (N-terminal biotin on a linker: ahx)

IL16_1, Q14005, sequence (Q14005 210-306): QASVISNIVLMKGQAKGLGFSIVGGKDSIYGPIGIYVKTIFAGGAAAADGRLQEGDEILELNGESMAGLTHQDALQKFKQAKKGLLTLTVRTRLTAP
GRID2IP_2, A4D2P6, sequence (A4D2P6 272-370): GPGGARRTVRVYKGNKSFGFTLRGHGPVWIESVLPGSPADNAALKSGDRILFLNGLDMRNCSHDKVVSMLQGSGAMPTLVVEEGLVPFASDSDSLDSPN

pKd (IL16_1, Q14005; [1]): below the threshold
pKd (GRID2IP_2, A4D2P6; [1]): below the threshold
pKd (SCRIB_1, Q14160; [1]): below the threshold
pKd (Inadl_5, Q8NI35; [1]): below the threshold
pKd (FRMPD4, Q14CM0; [1]): below the threshold
pKd (MAGI2_3, Q86UL8; [1]): below the threshold
pKd (FRMPD3, Q5JV73; [1]): below the threshold
pKd (DLG2_3, Q15700; [1]): below the threshold
pKd (MAGI2_4, Q86UL8; [1]): below the threshold
pKd (LIN7A, O14910; [1]): below the threshold
pKd (DLG4_2, P78352; [1]): below the threshold
pKd (LNX1_3, Q8TBB1; [1]): 4.28
pKd (LNX1_1, Q8TBB1; [1]): below the threshold
pKd (PTPN13_1, Q12923; [1]): below the threshold
pKd (GRID2IP_1, A4D2P6; [1]): below the threshold
pKd (PCLO, Q9Y6V0; [1]): below the threshold
pKd (PDZRN4_1, Q6ZMN7; [1]): below the threshold
pKd (APBA2_2, Q99767; [1]): below the threshold
pKd (TJP1_2, Q07157; [1]): below the threshold
pKd (FRMPD1, Q5SYB0; [1]): below the threshold
pKd (PDZD7_3, Q9H5P4; [1]): below the threshold
pKd (GRIP1_7, Q9Y3R0; [1]): below the threshold
pKd (TIAM2, Q8IVF5; [1]): 4.59
pKd (MAGI2_6, Q86UL8; [1]): below the threshold
pKd (MAST1, Q9Y2H9; [1]): below the threshold
pKd (GRIP1_4, Q9Y3R0; [1]): 3.9
pKd (LIN7B, Q9HAP6; [1]): 3.67
Binder: DFLSTFHIRI [CIB2, O75838]

pKd (IL16_1, Q14005; [1]): 4.53
pKd (GRID2IP_2, A4D2P6; [1]): below the threshold
pKd (SCRIB_1, Q14160; [1]): below the threshold
pKd (Inadl_5, Q8NI35; [1]): below the threshold
pKd (FRMPD4, Q14CM0; [1]): 3.58
pKd (MAGI2_3, Q86UL8; [1]): 4.54
pKd (FRMPD3, Q5JV73; [1]): below the threshold
pKd (DLG2_3, Q15700; [1]): below the threshold
pKd (MAGI2_4, Q86UL8; [1]): 4.25
pKd (LIN7A, O14910; [1]): 3.7
pKd (DLG4_2, P78352; [1]): 5.01
pKd (LNX1_3, Q8TBB1; [1]): below the threshold
pKd (LNX1_1, Q8TBB1; [1]): 4.06
pKd (PTPN13_1, Q12923; [1]): below the threshold
pKd (GRID2IP_1, A4D2P6; [1]): below the threshold
pKd (PCLO, Q9Y6V0; [1]): below the threshold
pKd (PDZRN4_1, Q6ZMN7; [1]): 3.72
pKd (APBA2_2, Q99767; [1]): below the threshold
pKd (TJP1_2, Q07157; [1]): below the threshold
pKd (FRMPD1, Q5SYB0; [1]): below the threshold
pKd (PDZD7_3, Q9H5P4; [1]): 4.54
pKd (GRIP1_7, Q9Y3R0; [1]): below the threshold
pKd (TIAM2, Q8IVF5; [1]): below the threshold
pKd (MAGI2_6, Q86UL8; [1]): 4.16
pKd (MAST1, Q9Y2H9; [1]): 4.31
pKd (GRIP1_4, Q9Y3R0; [1]): below the threshold
pKd (LIN7B, Q9HAP6; [1]): below the threshold
Binder: DPAESMESLV [PTPRG, P23470]

pKd (IL16_1, Q14005; [2]): 4.91
pKd (GRID2IP_2, A4D2P6; [2]): 3.97
pKd (SCRIB_1, Q14160; [2]): 4.15
pKd (Inadl_5, Q8NI35; [2]): 3.73
pKd (FRMPD4, Q14CM0; [2]): below the threshold
pKd (MAGI2_3, Q86UL8; [2]): 4.85
pKd (FRMPD3, Q5JV73; [2]): below the threshold
pKd (DLG2_3, Q15700; [2]): 4.63
pKd (MAGI2_4, Q86UL8; [2]): 4.04
pKd (LIN7A, O14910; [2]): 3.89
pKd (DLG4_2, P78352; [2]): 5.25
pKd (LNX1_3, Q8TBB1; [2]): below the threshold
pKd (LNX1_1, Q8TBB1; [2]): 4.38
pKd (PTPN13_1, Q12923; [2]): below the threshold
pKd (GRID2IP_1, A4D2P6; [2]): below the threshold
pKd (PCLO, Q9Y6V0; [2]): below the threshold
pKd (PDZRN4_1, Q6ZMN7; [2]): 3.95
pKd (APBA2_2, Q99767; [2]): below the threshold
pKd (TJP1_2, Q07157; [2]): below the threshold
pKd (FRMPD1, Q5SYB0; [2]): below the threshold
pKd (PDZD7_3, Q9H5P4; [2]): 5.35
pKd (GRIP1_7, Q9Y3R0; [2]): 3.49
pKd (TIAM2, Q8IVF5; [2]): below the threshold
pKd (MAGI2_6, Q86UL8; [2]): 4.53
pKd (MAST1, Q9Y2H9; [2]): 4.16
pKd (GRIP1_4, Q9Y3R0; [2]): below the threshold
pKd (LIN7B, Q9HAP6; [2]): 4.15
Binder: QDEKVKESYV [ABCA1, O95477]
